Reference: patent US20230192860A1 (Bristol-Myers Squibb, published 2023)
Values joined by “and” are separate entries in the source; they are usually repeats but may differ in a detail not shown here. Equal values may be shown once.

Columns and labels:
[1] = target: T1, monovalent hVISTA-ECD (amino acids 32-193 of SEQ ID NO: 1 with a 7xHis tail) (human, UniProt Q9H7M9 33-193); assay: SPR 37C, Ab on Protein A, hVISTA-ECD 50-5 nM, pH 6.0, average
T1 construct: analyte of the SPR assays; also called huVISTA-His; human VISTA-ECD
Protocol: Binding of several preparations of each of the ‘029 progeny clones and of the parent ‘029 antibodies, formatted as IgG1.3 antibodies, to human VISTA at pH 6.0 and 7.4 was measured by Surface plasmon resonance (SPR). SPR analysis was performed to measure koff and KD binding affinity measurements for VISTA Abs at acidic and neutral pHs using a Biacore® T100 instrument (GE Healthcare). […] Antibodies were diluted to 25 nM in PBST pH 7.4, and were captured across active biosensor flow cells at 5 ul/min for 60 seconds. A concentration series of 50 - 5 nM monovalent hVISTA-ECD (SEQ ID NO: 325) was prepared in pH 7.4 and 6.0 running buffers, and was injected over the captured antibodies at 40 ul/min to measure association and dissociation. Two 15 second injections of 10 mM glycine pH 1.5 were used to regenerate the Protein A capture surface between assay cycles. Rate constants ka (kₒₙ) and kd (koff) were derived from reference flow cell and 0 nM blank-subtracted sensorgrams, and were fit to a 1:1 binding model in Biacore® T200 Evaluation Software v.2.0. The affinity constant, KD was calculated as the ratio of rate constants koff/kₒₙ for each VISTA antibody.

[2] = target: T2, hVISTA-ECD 6-His tag (human, UniProt Q9H7M9 33-193); assay: SPR, Ab on Protein A, hVISTA analyte, pH 6.0
T2 construct: also called monovalent hVISTA-ECD; human VISTA

[3] = target: T2, hVISTA-ECD 6-His tag; assay: SPR, Ab on Protein A, hVISTA analyte, pH 6.45
[4] = target: T2, hVISTA-ECD 6-His tag; assay: SPR, Ab on Protein A, hVISTA analyte, pH 6.9
Protocol: Further binding kinetic experiments were performed at various pHs on VISTA antibodies described herein by SPR as generally described in Example 9 above. Antibodies were normalized to 50 nM concentration in PBST pH 7.4 and captured on a Protein A CM5 chip (ID 4931) by injecting for 45 seconds at a 5 µL/min flow rate. An 8-point human VISTA titration ([…]) was prepared in PBST at pH 7.4, 6.9, 6.45, and 6.0. Titrations were injected over the captured antibodies for 180 seconds at 30 µL/min. Sensorgrams were fit to a 1:1 binding model in T200 evaluation software and the kinetic constants were reported.
Each table reports the data at one of the four tested pHs (7.4, 6.9, 6.45, and 6.0, respectively). The 8-point hVISTA titration used in these assays was chosen to provide increased confidence in kinetic values reported at neutral pH conditions. A relatively stringent cutoff for non-binding was applied in this assay. Certain progeny of P1-061029 antibody (P1-068757, ‘759, ‘765, ‘771, and ‘775) show no binding to hVISTA at micromolar concentrations at pH 7.4, while ‘761 and ‘767 show no binding to hVISTA at 100 nM at pH 7.4 but do show binding to hVISTA at micromolar concentrations.

[5] = target: T2, hVISTA-ECD 6-His tag; assay: SPR 37 C, Ab on Protein A, pH 7.4
[6] = target: T2, hVISTA-ECD 6-His tag; assay: SPR 37 C, Ab on Protein A, pH 6.0

T1 sequence (Q9H7M9 other isoform, or with tags, fused parts or gaps limits assumed): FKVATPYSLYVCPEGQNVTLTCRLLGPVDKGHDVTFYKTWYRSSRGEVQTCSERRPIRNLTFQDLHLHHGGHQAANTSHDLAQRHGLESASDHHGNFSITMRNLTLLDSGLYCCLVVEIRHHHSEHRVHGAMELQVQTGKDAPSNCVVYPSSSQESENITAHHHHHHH
T2 sequence (Q9H7M9 other isoform, or with tags, fused parts or gaps limits assumed): as above

Binder | Kd [1] | koff [1] | kon [1] | further results
P1-068736 (antibody, human IgG1, kappa, V domains shown, IgG1.3) VH: QVQLVESGGGVVQPGRSLRLSCAASGFTFSEYAMHWVRQAPGKGLEWVAIDWYDGSNKDYADSVKGRFTISRDNSKNTLYLQMNSLRAEDTAVYYCARDSGFYDSYYFDDWGQGTLVTVSS VL: EIVLTQSPATLSLSPGERATLSCRASQSVSSSYLAWYQQKPGQAPRLLIYDASNRATGIPARFSGSGSGTDFTLTISSLEPEDFATYYCQQYNSYPYTFGQGTKLEIKR | 1.1 nM | 0.0095 s⁻¹ | 8.4e+06 M⁻¹ s⁻¹ | –
P1-068744 (antibody, human IgG1, kappa, V domains shown, IgG1.3; also called P1-068744-7) VH: QVQLVESGGGVVQPGRSLRLSCAASGFTFSEYAMHWVRQAPGKGLEWVAHIWYDGSNKYEADSVKGRFTISRDNSKNTLYLQMNSLRAEDTAVYYCARDSGFYESYYFDEWGQGTLVTVSS VL: EIVLTQSPATLSLSPGERATLSCRASQSVSSSYLAWYQQKPGQAPRLLIYDASNRATGIPARFSGSGSGTDFTLTISSLEPEDFATYYCQQYNSYPYTFGQGTKLEIKR | 1.3 nM | 0.0018 s⁻¹ | 1.3e+06 M⁻¹ s⁻¹ | –
P1-068752 (antibody, human IgG1, kappa, V domains shown, IgG1.3) VH: QVQLVESGGGVVQPGRSLRLSCAASGFTFSSYAMHWVRQAPGKGLEWVAEIWYDGSNKDYADSVKGRFTISRDNSKNTLYLQMNSLRAEDTAVYYCARDSGFYDSYYFDEWGQGTLVTVSS VL: EIVLTQSPATLSLSPGERATLSCRASQSVSSSYLAWYQQKPGQAPRLLIYDASNRATGIPARFSGSGSGTDFTLTISSLEPEDFATYYCQQYNSYPYTFGQGTKLEIKR | 5.6 nM | 0.034 s⁻¹ | 6.1e+06 M⁻¹ s⁻¹ | –
P1-068757 (antibody, human IgG1, kappa, V domains shown, IgG1.3; also called P1-068757-9) VH: EVQLVESGGGLVQPGKSLRLSCAASGFTLEDEAMHWVRQAPGKGLEWVSGINWNSEEIGYADSVKGRFTISRDNAKNSLYLQMNSLRTEDTALYYCAKVPGYSGGWIDAEDDWGQGTMVTVSS VL: not shown | 19 nM | 0.017 s⁻¹ | 890000 M⁻¹ s⁻¹ | –
P1-068759 (antibody, human IgG1, kappa, V domains shown, IgG1.3; also called P1-068759-9) VH: EVQLVESGGGLVQPGKSLRLSCAASGFTLEDEAMHWVRQAPGKGLEWVSGIDWNSENIGYADSVKGRFTISRDNAKNSLYLQMNSLRTEDTALYYCAKVPGYSGGWIDAEDDWGQGTMVTVSS VL: not shown | 60 nM | 0.08 s⁻¹ | 1.3e+06 M⁻¹ s⁻¹ | –
P1-068765 (antibody, human IgG1, kappa, V domains shown, IgG1.3; also called P1-068765-10) VH: EVQLVESGGGLVQPGKSLRLSCAASGFTDEDYAMHWVRQAPGKGLEWVSGINWNSEEIGYADSVKGRFTISRDNAKNSLYLQMNSLRTEDTALYYCAKVPGYSGGWIDAEDDWGQGTMVTVSS VL: not shown | 19 nM | 0.007 s⁻¹ | 370000 M⁻¹ s⁻¹ | –
P1-068769 (antibody, human IgG1, kappa, V domains shown, IgG1.3) VH: EVQLVESGGGLVQPGKSLRLSCAASGFTLEDEAMHWVRQAPGKGLEWVSGINWNSDHIGYADSVKGRFTISRDNAKNSLYLQMNSLRTEDTALYYCAKVPGYSGGWIDAEDDWGQGTMVTVSS VL: not shown | 55 nM | 0.04 s⁻¹ | 810000 M⁻¹ s⁻¹ | –
P1-068771 (antibody, human IgG1, kappa, V domains shown, IgG1.3; also called P1-068771-10) VH: EVQLVESGGGLVQPGKSLRLSCAASGFTLEDEAMHWVRQAPGKGLEWVSGINWNSHEIGYADSVKGRFTISRDNAKNSLYLQMNSLRTEDTALYYCAKVPGYSGGWIDAEDDWGQGTMVTVSS VL: not shown | 25 nM | 0.018 s⁻¹ | 760000 M⁻¹ s⁻¹ | –
P1-068773 (antibody, human IgG1, kappa, V domains shown, IgG1.3) VH: EVQLVESGGGLVQPGKSLRLSCAASGFTLEDYAMHWVRQAPGKGLEWVSGIDWNSDNIGYADSVKGRFTISRDNAKNSLYLQMNSLRTEDTALYYCAKVPGYSGGWIDAEDDWGQGTMVTVSS VL: not shown | 9.4 nM | 0.0029 s⁻¹ | 300000 M⁻¹ s⁻¹ | –
P1-068775 (antibody, human IgG1, kappa, V domains shown, IgG1.3; also called P1-068775-8) VH: EVQLVESGGGLVQPGKSLRLSCAASGFTLEDEAMHWVRQAPGKGLEWVSGIDWNSEEIGYADSVKGRFTISRDNAKNSLYLQMNSLRTEDTALYYCAKVPGYSHGWIDAEDDWGQGTMVTVSS VL: not shown | 23 nM | 0.047 s⁻¹ | 1.8e+06 M⁻¹ s⁻¹ | –
P1-069059 (antibody, human IgG1, kappa, V domains shown, IgG1.3) VH: EVQLVESGGGLVQPGKSLRLSCAASGFTLEDYAMHWVRQAPGKGLEWVSGINWNSDHIGYADSVKGRFTISRDNAKNSLYLQMNSLRTEDTALYYCAKVPGYSGGWIDAEDDWGQGTMVTVSS VL: not shown | 4.8 nM | 0.0016 s⁻¹ | 340000 M⁻¹ s⁻¹ | –
P1-069061 (antibody, human IgG1, kappa, V domains shown, IgG1.3) VH: EVQLVESGGGLVQPGKSLRLSCAASGFTLEDYAMHWVRQAPGKGLEWVSGINWNSAEIGYADSVKGRFTISRDNAKNSLYLQMNSLRTEDTALYYCAKVPGYSGGWIDAEDDWGQGTMVTVSS VL: not shown | 2.5 nM | 0.0011 s⁻¹ | 430000 M⁻¹ s⁻¹ | –
P1-069073 (antibody, human IgG1, kappa, V domains shown, IgG1.3) VH: EVQLVESGGGLVQPGKSLRLSCAASGFTLEDEAMHWVRQAPGKGLEWVSGINWNSAEIGYADSVKGRFTISRDNAKNSLYLQMNSLRTEDTALYYCAKVPGYSGGWIDAEDVWGQGTMVTVSS VL: not shown | 9.4 nM | 0.0058 s⁻¹ | 610000 M⁻¹ s⁻¹ | –
P1-068759 (antibody, human IgG1, kappa, V domains shown, also called P1-068759-9; 029 progeny) VH: EVQLVESGGGLVQPGKSLRLSCAASGFTLEDEAMHWVRQAPGKGLEWVSGIDWNSENIGYADSVKGRFTISRDNAKNSLYLQMNSLRTEDTALYYCAKVPGYSGGWIDAEDDWGQGTMVTVSS VL: not shown | – | – | – | Kd [2]: 96 nM; koff [2]: 0.058 s⁻¹; kon [2]: 600000 M⁻¹ s⁻¹
P1-072000 (P1-061029_F100fE_V102D) (antibody, human IgG1, kappa, V domains shown, also called P1-072000-3; P1-72000) VH: EVQLVESGGGLVQPGKSLRLSCAASGFTLDDYAMHWVRQAPGKGLEWVSGINWNSANIGYADSVKGRFTISRDNAKNSLYLQMNSLRTEDTALYYCAKVPGYSGGWIDAEDDWGQGTMVTVSS VL: not shown | – | – | – | Kd [2]: 11 nM and 5.8 nM; koff [2]: 0.0027 s⁻¹ and 0.0026 s⁻¹; kon [2]: 250000 M⁻¹ s⁻¹ and 450000 M⁻¹ s⁻¹; Kd [3]: 47 nM and 27 nM; koff [3]: 0.0053 s⁻¹ and 0.0044 s⁻¹; kon [3]: 110000 M⁻¹ s⁻¹ and 160000 M⁻¹ s⁻¹; Kd [4]: 280 nM and 250 nM; koff [4]: 0.011 s⁻¹; kon [4]: 39000 M⁻¹ s⁻¹ and 42000 M⁻¹ s⁻¹
P1-077835 (P1-068744 E31S) (antibody, V domains shown) VH: QVQLVESGGGVVQPGRSLRLSCAASGFTFSSYAMHWVRQAPGKGLEWVAHIWYDGSNKYEADSVKGRFTISRDNSKNTLYLQMNSLRAEDTAVYYCARDSGFYESYYFDEWGQGTLVTVSS VL: EIVLTQSPATLSLSPGERATLSCRASQSVSSSYLAWYQQKPGQAPRLLIYDASNRATGIPARFSGSGSGTDFTLTISSLEPEDFATYYCQQYNSYPYTFGQGTKLEIK | – | – | – | Kd [5]: 660 nM; koff [5]: 0.026 s⁻¹; kon [5]: 39000 M⁻¹ s⁻¹; Kd [6]: 7.7 nM; koff [6]: 0.0017 s⁻¹; kon [6]: 220000 M⁻¹ s⁻¹
P1-077837 (P1-068744 H50I) (antibody, V domains shown) VH: QVQLVESGGGVVQPGRSLRLSCAASGFTFSEYAMHWVRQAPGKGLEWVAIIWYDGSNKYEADSVKGRFTISRDNSKNTLYLQMNSLRAEDTAVYYCARDSGFYESYYFDEWGQGTLVTVSS VL: EIVLTQSPATLSLSPGERATLSCRASQSVSSSYLAWYQQKPGQAPRLLIYDASNRATGIPARFSGSGSGTDFTLTISSLEPEDFATYYCQQYNSYPYTFGQGTKLEIK | – | – | – | Kd [5]: 26 nM; koff [5]: 0.0033 s⁻¹; kon [5]: 130000 M⁻¹ s⁻¹; Kd [6]: 2.5 nM; koff [6]: 0.003 s⁻¹; kon [6]: 1.2e+06 M⁻¹ s⁻¹
P1-077839 (P1-068744 E59Y) (antibody, V domains shown) VH: QVQLVESGGGVVQPGRSLRLSCAASGFTFSEYAMHWVRQAPGKGLEWVAHIWYDGSNKYYADSVKGRFTISRDNSKNTLYLQMNSLRAEDTAVYYCARDSGFYESYYFDEWGQGTLVTVSS VL: EIVLTQSPATLSLSPGERATLSCRASQSVSSSYLAWYQQKPGQAPRLLIYDASNRATGIPARFSGSGSGTDFTLTISSLEPEDFATYYCQQYNSYPYTFGQGTKLEIK | – | – | – | Kd [5]: 1300 nM; koff [5]: 0.093 s⁻¹; kon [5]: 71000 M⁻¹ s⁻¹; Kd [6]: 85 nM; koff [6]: 0.054 s⁻¹; kon [6]: 630000 M⁻¹ s⁻¹
